From US20180355060A1 (published 2018)

Assays:
[1] = molecular target: T1, human transglutaminase type 2 (TG2) (human, UniProt P21980 1-687); assay: cell-based or functional assay
T1 sequence: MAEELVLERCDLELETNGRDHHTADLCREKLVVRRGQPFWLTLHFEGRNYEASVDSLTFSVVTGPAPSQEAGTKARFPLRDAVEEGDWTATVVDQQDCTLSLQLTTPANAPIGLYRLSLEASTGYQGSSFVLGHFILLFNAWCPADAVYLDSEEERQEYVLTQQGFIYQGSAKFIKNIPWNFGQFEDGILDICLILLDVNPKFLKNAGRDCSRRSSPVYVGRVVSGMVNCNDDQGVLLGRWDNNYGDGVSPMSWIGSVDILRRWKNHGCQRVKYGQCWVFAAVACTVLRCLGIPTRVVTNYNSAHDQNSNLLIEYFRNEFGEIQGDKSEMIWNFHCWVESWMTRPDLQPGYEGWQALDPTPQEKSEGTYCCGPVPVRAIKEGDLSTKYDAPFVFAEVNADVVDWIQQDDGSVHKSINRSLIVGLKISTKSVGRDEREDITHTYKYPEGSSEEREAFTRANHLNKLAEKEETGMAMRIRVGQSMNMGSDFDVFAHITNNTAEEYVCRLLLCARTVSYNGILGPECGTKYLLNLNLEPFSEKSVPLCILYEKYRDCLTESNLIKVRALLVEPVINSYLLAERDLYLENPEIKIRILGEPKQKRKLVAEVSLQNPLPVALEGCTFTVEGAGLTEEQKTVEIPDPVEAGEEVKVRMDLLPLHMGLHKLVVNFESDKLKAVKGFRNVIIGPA

mouse TG2 = molecular target: T2, mouse TG2 (mouse, UniProt P21981 1-686); assay: western blot and ELISA
T2 sequence: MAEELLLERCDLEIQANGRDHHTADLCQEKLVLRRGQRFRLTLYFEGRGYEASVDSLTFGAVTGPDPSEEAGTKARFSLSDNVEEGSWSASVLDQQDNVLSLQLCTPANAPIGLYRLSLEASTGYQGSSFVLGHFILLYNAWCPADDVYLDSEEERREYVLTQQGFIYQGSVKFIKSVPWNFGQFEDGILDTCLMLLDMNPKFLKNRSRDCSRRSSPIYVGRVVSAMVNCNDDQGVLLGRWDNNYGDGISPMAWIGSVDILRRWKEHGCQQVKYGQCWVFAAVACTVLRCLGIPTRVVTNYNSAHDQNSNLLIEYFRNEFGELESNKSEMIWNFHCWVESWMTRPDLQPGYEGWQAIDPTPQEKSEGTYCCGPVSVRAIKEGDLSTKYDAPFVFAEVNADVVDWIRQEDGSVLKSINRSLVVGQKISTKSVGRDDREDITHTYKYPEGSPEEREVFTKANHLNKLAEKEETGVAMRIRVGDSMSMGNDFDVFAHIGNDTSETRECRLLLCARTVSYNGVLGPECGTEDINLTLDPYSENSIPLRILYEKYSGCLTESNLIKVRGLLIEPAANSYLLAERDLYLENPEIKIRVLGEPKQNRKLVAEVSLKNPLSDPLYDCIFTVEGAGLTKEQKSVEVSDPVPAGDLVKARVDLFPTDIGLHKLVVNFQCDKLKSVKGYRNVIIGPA

rat TG2 = molecular target: T3, rat TG2 (rat, UniProt Q9WVJ6 1-686); assay: western blot and ELISA
T3 sequence: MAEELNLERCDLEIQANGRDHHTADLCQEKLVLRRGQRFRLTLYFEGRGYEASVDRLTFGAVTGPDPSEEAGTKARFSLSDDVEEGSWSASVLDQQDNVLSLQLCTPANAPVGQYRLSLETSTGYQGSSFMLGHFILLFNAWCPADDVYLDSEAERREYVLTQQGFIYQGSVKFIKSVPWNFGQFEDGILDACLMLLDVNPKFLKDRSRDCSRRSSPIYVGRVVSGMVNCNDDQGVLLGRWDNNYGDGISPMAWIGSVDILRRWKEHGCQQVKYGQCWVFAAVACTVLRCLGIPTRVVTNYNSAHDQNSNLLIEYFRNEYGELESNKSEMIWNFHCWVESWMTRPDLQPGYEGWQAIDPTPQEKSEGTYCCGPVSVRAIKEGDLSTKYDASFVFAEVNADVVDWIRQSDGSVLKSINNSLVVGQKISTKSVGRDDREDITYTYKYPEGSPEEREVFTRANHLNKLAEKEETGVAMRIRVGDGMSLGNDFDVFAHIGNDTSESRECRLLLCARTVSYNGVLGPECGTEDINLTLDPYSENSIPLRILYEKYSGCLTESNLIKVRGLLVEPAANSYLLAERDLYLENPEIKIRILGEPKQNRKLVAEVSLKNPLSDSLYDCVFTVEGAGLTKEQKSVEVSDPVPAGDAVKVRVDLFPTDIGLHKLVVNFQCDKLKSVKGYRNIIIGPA

B1: AB1 murine monoclonal anti-TG2 antibody (antibody, V domains shown)
VH: EVQLVESGGGLVKPGGSLKLSCAASGFTLSSSAMSWVRQTPDRRLEWVATISVGGGKTYYPDSVKGRFTISRDNAKNTLYLQMNSLRSEDTAMYYCAKLISLYWGQGTTLTVSS
VL: DIKMTQSPSSMYASLGERVTITCKASQDINSYLTWFQQKPGKSPKTLIYRTNRLFDGVPSRFSGSGSGQDFFLTISSLEYEDMGIYYCLQYDDFPYTFGGGTKLEIK
notes: they differ only in the first residues; also called AB1 IgG; mAB003
For B1, the “IC50, 3H-putrescine incorporation TG activity assay” value [1] was 1.1e-05 mg/ml of IgG (amount required to inhibit 1 ng of TG2), the binding result (mouse TG2) was “binds” and the binding result (rat TG2) was “binds”.
